{
  "source": "paper PMC7558102",
  "about": "“Hybrid Multimodal Imaging Synthons for Chemoselective and Efficient Biomolecule Modification with Chelator and Near-Infrared Fluorescent Cyanine Dye” (Pharmaceuticals, 2020)",
  "key": {"[1]": {"test": "water/1-octanol partition coefficients (logD) of 68Ga-labeled compounds, γ-counting", "assay_type": "physicochemical", "details": "pH 7.4", "protocol": "The mixtures were vigorously shaken for 5 min on a vibrating plate. After subsequent centrifugation at 13,000 rpm for 5 min, 125 µL was taken from each phase and measured in a γ-counter. The logD values were calculated from three or four independent experiments, each performed in triplicate. For 18, the logD was determined by semipreparative HPLC. For this purpose, a solution of 18 (10 µL, c = 5 × 10^−4 mol/L) in water was added to a mixture of 1 mL 1-octanol and 990 µL phosphate buffered solution (0.05 M, pH 7.4) and vigorously shaken for 5 min. After centrifugation, the phases were separated and both phases were analyzed by semipreparative HPLC and the peaks of the UV signals at 214 nm were integrated. The logD was determined by three separate measurements, each experiment performed in triplicate."}, "[2]": {"test": "photophysical properties (absorbance and emission measurements)", "assay_type": "physicochemical", "details": "for λmax(em): excitation wavelength λex = 650 nm", "protocol": "Finally, the photophysical properties were determined for dyes, MIS and their conjugates. It could be shown that the photophysical properties remained largely unaltered, including absorption coefficients and emission characteristics (Table 1). […] The only change in photophysical properties we qualitatively observed was an increase in the quantum yields of the dye conjugates compared to their unconjugated leads 1–3, an effect that was described before and can be attributed to the conjugation of sterically demanding groups (such as the PESIN homodimers used here), resulting in a decrease in aggregation of the dye molecules and thus a reduced fluorescence quenching. γ-Counting was performed using a 2480 Wizard gamma counter system from Perkin Elmer. A Cary 100 Bio system (Varian) was used to record the UV/Vis-Spectra together with 4 mL PMMA cuvettes from Sigma-Aldrich. Furthermore, for absorbance and emission measurements, a Tecan Infinite M200 Microplate reader together with a Nunc Micro-Well 96 solid plate from ThermoFisher was used."}},
  "note": "Where two headings read alike, the source gives them in different places.",
  "data": [
    {"smiles": "CC1(C)C(/C=C/C2=C(c3ccc(C(=O)NCCCC[C@H](NC(=O)CC[C@H](C(=O)O)N4CCN(CC(=O)O)CCN(CC(=O)O)CC4)C(=O)N[C@@H](CS)C(N)=O)cc3)C(=C/C=C3/N(CCCCS(=O)(=O)[O-])c4ccc5ccccc5c4C3(C)C)/CCC2)=[N+](CCCCS(=O)(=O)O)c2ccc3ccccc3c21", "note": "(single isomer, unassigned) [[68Ga]Ga-10, metal not drawn]", "values": [
      {"measurement": "logD", "setting": "[1]", "value": "-1.29 ± 0.11"}
    ]},
    {"smiles": "CC1(C)C(=CC=C2CCCC(C=CC3=[N+](CCCCS(=O)(=O)[O-])c4ccc(C(=O)NCCCC[C@H](NC(=O)CC[C@H](C(=O)O)N5CCN(CC(=O)O)CCN(CC(=O)O)CC5)C(=O)N[C@@H](CS)C(N)=O)cc4C3(C)C)=C2c2ccccc2)N(CCCCS(=O)(=O)O)c2ccc(S(=O)(=O)O)cc21", "note": "(single isomer, unassigned) [[68Ga]Ga-11, metal not drawn]", "values": [
      {"measurement": "logD", "setting": "[1]", "value": "-3.05 ± 0.08"}
    ]},
    {"smiles": "CC1(C)C(=CC=C2CCCC(C=CC3=[N+](CCCCS(=O)(=O)[O-])c4ccc(S(=O)(=O)O)cc4C3(C)C)=C2c2ccc(CCC(=O)NCCCC[C@H](NC(=O)CC[C@H](C(=O)O)N3CCN(CC(=O)O)CCN(CC(=O)O)CC3)C(=O)N[C@@H](CS)C(N)=O)cc2)N(CCCCS(=O)(=O)O)c2ccc(S(=O)(=O)O)cc21", "note": "(single isomer, unassigned) [[68Ga]Ga-12, metal not drawn]", "values": [
      {"measurement": "logD", "setting": "[1]", "value": "-3.47 ± 0.17"}
    ]},
    {"smiles": "CC1(C)C(/C=C/C2=C(c3ccc(C(=O)NCCCC[C@H](NC(=O)CC[C@H](C(=O)O)N4CCN(CC(=O)O)CCN(CC(=O)O)CC4)C(=O)N[C@@H](CS)C(N)=O)cc3)C(=C/C=C3/N(CCCCS(=O)(=O)[O-])c4ccc5ccccc5c4C3(C)C)/CCC2)=[N+](CCCCS(=O)(=O)O)c2ccc3ccccc3c21", "note": "[Compound 10]", "values": [
      {"measurement": "logD", "setting": "[1]", "value": "−1.29 ± 0.11"}
    ]},
    {"smiles": "CC1(C)C(=CC=C2CCCC(C=CC3=[N+](CCCCS(=O)(=O)[O-])c4ccc(C(=O)NCCCC[C@H](NC(=O)CC[C@H](C(=O)O)N5CCN(CC(=O)O)CCN(CC(=O)O)CC5)C(=O)N[C@@H](CS)C(N)=O)cc4C3(C)C)=C2c2ccccc2)N(CCCCS(=O)(=O)O)c2ccc(S(=O)(=O)O)cc21", "note": "[Compound 11]", "values": [
      {"measurement": "logD", "setting": "[1]", "value": "−3.05 ± 0.08"}
    ]},
    {"smiles": "CC1(C)C(=CC=C2CCCC(C=CC3=[N+](CCCCS(=O)(=O)[O-])c4ccc(S(=O)(=O)O)cc4C3(C)C)=C2c2ccc(CCC(=O)NCCCC[C@H](NC(=O)CC[C@H](C(=O)O)N3CCN(CC(=O)O)CCN(CC(=O)O)CC3)C(=O)N[C@@H](CS)C(N)=O)cc2)N(CCCCS(=O)(=O)O)c2ccc(S(=O)(=O)O)cc21", "note": "[Compound 12]", "values": [
      {"measurement": "logD", "setting": "[1]", "value": "−3.47 ± 0.17"}
    ]},
    {"smiles": "CSCC[C@H](NC(=O)[C@H](CC(C)C)NC(=O)[C@H](Cc1c[nH]cn1)NC(=O)CNC(=O)[C@@H](NC(=O)[C@H](C)NC(=O)[C@H](Cc1c[nH]c2ccccc12)NC(=O)[C@H](CCC(N)=O)NC(=O)CCOCCOCCOCCOCCNC(=O)CON=Cc1ccc(C(=O)NCCCN(CCCNC(=O)c2ccc(C=NOCC(=O)NCCOCCOCCOCCOCCC(=O)N[C@@H](CCC(N)=O)C(=O)N[C@@H](Cc3c[nH]c4ccccc34)C(=O)N[C@@H](C)C(=O)N[C@H](C(=O)NCC(=O)N[C@@H](Cc3c[nH]cn3)C(=O)N[C@@H](CC(C)C)C(=O)N[C@@H](CCSC)C(N)=O)C(C)C)cc2)CC(=O)N[C@H](CSC2CC(=O)N(CCN3C(=O)CC(SC[C@H](NC(=O)[C@H](CCCCNC(=O)c4ccc(C5=C(C=CC6=[N+](CCCCS(=O)(=O)[O-])c7ccc8ccccc8c7C6(C)C)CCCC5=CC=C5N(CCCCS(=O)(=O)O)c6ccc7ccccc7c6C5(C)C)cc4)NC(=O)CC[C@H](C(=O)O)N4CCN(CC(=O)O)CCN(CC(=O)O)CC4)C(N)=O)C3=O)C2=O)C(=O)NCCOCCOCC(N)=O)cc1)C(C)C)C(N)=O", "note": "(stereo partly drawn) [Compound 14]", "values": [
      {"measurement": "Stokes Shift", "setting": "[2]", "value": 10, "unit": "nm"},
      {"measurement": "λmax(abs)", "setting": "[2]", "value": "735/810"},
      {"measurement": "λmax(em)", "setting": "[2]", "value": 820, "unit": "nm"}
    ]},
    {"smiles": "CSCC[C@H](NC(=O)[C@H](CC(C)C)NC(=O)[C@H](Cc1c[nH]cn1)NC(=O)CNC(=O)[C@@H](NC(=O)[C@H](C)NC(=O)[C@H](Cc1c[nH]c2ccccc12)NC(=O)[C@H](CCC(N)=O)NC(=O)CCOCCOCCOCCOCCNC(=O)CON=Cc1ccc(C(=O)NCCCN(CCCNC(=O)c2ccc(C=NOCC(=O)NCCOCCOCCOCCOCCC(=O)N[C@@H](CCC(N)=O)C(=O)N[C@@H](Cc3c[nH]c4ccccc34)C(=O)N[C@@H](C)C(=O)N[C@H](C(=O)NCC(=O)N[C@@H](Cc3c[nH]cn3)C(=O)N[C@@H](CC(C)C)C(=O)N[C@@H](CCSC)C(N)=O)C(C)C)cc2)CC(=O)N[C@H](CSC2CC(=O)N(CCN3C(=O)CC(SC[C@H](NC(=O)[C@H](CCCCNC(=O)c4ccc5c(c4)C(C)(C)C(C=CC4=C(c6ccccc6)C(=CC=C6N(CCCCS(=O)(=O)O)c7ccc(S(=O)(=O)O)cc7C6(C)C)CCC4)=[N+]5CCCCS(=O)(=O)[O-])NC(=O)CC[C@H](C(=O)O)N4CCN(CC(=O)O)CCN(CC(=O)O)CC4)C(N)=O)C3=O)C2=O)C(=O)NCCOCCOCC(N)=O)cc1)C(C)C)C(N)=O", "note": "(stereo partly drawn) [Compound 15]", "values": [
      {"measurement": "Stokes Shift", "setting": "[2]", "value": 30, "unit": "nm"},
      {"measurement": "λmax(abs)", "setting": "[2]", "value": "705/770"},
      {"measurement": "λmax(em)", "setting": "[2]", "value": 800, "unit": "nm"}
    ]},
    {"smiles": "CSCC[C@H](NC(=O)[C@H](CC(C)C)NC(=O)[C@H](Cc1c[nH]cn1)NC(=O)CNC(=O)[C@@H](NC(=O)[C@H](C)NC(=O)[C@H](Cc1c[nH]c2ccccc12)NC(=O)[C@H](CCC(N)=O)NC(=O)CCOCCOCCOCCOCCNC(=O)CON=Cc1ccc(C(=O)NCCCN(CCCNC(=O)c2ccc(C=NOCC(=O)NCCOCCOCCOCCOCCC(=O)N[C@@H](CCC(N)=O)C(=O)N[C@@H](Cc3c[nH]c4ccccc34)C(=O)N[C@@H](C)C(=O)N[C@H](C(=O)NCC(=O)N[C@@H](Cc3c[nH]cn3)C(=O)N[C@@H](CC(C)C)C(=O)N[C@@H](CCSC)C(N)=O)C(C)C)cc2)CC(=O)N[C@H](CSC2CC(=O)N(CCN3C(=O)CC(SC[C@H](NC(=O)[C@H](CCCCNC(=O)CCc4ccc(C5=C(C=CC6=[N+](CCCCS(=O)(=O)[O-])c7ccc(S(=O)(=O)O)cc7C6(C)C)CCCC5=CC=C5N(CCCCS(=O)(=O)O)c6ccc(S(=O)(=O)O)cc6C5(C)C)cc4)NC(=O)CC[C@H](C(=O)O)N4CCN(CC(=O)O)CCN(CC(=O)O)CC4)C(N)=O)C3=O)C2=O)C(=O)NCCOCCOCC(N)=O)cc1)C(C)C)C(N)=O", "note": "(stereo partly drawn) [Compound 16]", "values": [
      {"measurement": "Stokes Shift", "setting": "[2]", "value": 20, "unit": "nm"},
      {"measurement": "λmax(abs)", "setting": "[2]", "value": "700/770"},
      {"measurement": "λmax(em)", "setting": "[2]", "value": 790, "unit": "nm"}
    ]},
    {"smiles": "NC(=O)C(CS)NC(=O)CNC(=O)CCC(C(=O)O)N1CCN(CC(=O)O)CCN(CC(=O)O)CC1", "note": "(stereo not drawn) [Compound 19, NH2-Cys-Gly-NODA-GA]", "values": [
      {"measurement": "logD", "setting": "[1]; 68Ga-labeled compound, 1-octanol / phosphate buffer 0.05 M, read-out: logD", "value": "-3.35 ± 0.15"}
    ]},
    {"smiles": "CSCC[C@H](NC(=O)[C@H](CC(C)C)NC(=O)[C@H](Cc1c[nH]cn1)NC(=O)CNC(=O)[C@@H](NC(=O)[C@H](C)NC(=O)[C@H](Cc1c[nH]c2ccccc12)NC(=O)[C@H](CCC(N)=O)NC(=O)CCOCCOCCOCCOCCNC(=O)CON=Cc1ccc(C(=O)NCCCN(CCCNC(=O)c2ccc(C=NOCC(=O)NCCOCCOCCOCCOCCC(=O)N[C@@H](CCC(N)=O)C(=O)N[C@@H](Cc3c[nH]c4ccccc34)C(=O)N[C@@H](C)C(=O)N[C@H](C(=O)NCC(=O)N[C@@H](Cc3c[nH]cn3)C(=O)N[C@@H](CC(C)C)C(=O)N[C@@H](CCSC)C(N)=O)C(C)C)cc2)CC(=O)N[C@H](CSC2CC(=O)N(CCN3C(=O)CC(SC[C@H](NC(=O)[C@H](CCCCNC(=O)c4ccc(C5=C(C=CC6=[N+](CCCCS(=O)(=O)[O-])c7ccc8ccccc8c7C6(C)C)CCCC5=CC=C5N(CCCCS(=O)(=O)O)c6ccc7ccccc7c6C5(C)C)cc4)NC(=O)CC[C@H](C(=O)O)N4CCN(CC(=O)O)CCN(CC(=O)O)CC4)C(N)=O)C3=O)C2=O)C(=O)NCCOCCOCC(N)=O)cc1)C(C)C)C(N)=O", "note": "(stereo partly drawn) [[68Ga]Ga-14, metal not drawn]", "values": [
      {"measurement": "logD", "setting": "[1]", "value": "-1.33 ± 0.04"}
    ]},
    {"smiles": "CSCC[C@H](NC(=O)[C@H](CC(C)C)NC(=O)[C@H](Cc1c[nH]cn1)NC(=O)CNC(=O)[C@@H](NC(=O)[C@H](C)NC(=O)[C@H](Cc1c[nH]c2ccccc12)NC(=O)[C@H](CCC(N)=O)NC(=O)CCOCCOCCOCCOCCNC(=O)CON=Cc1ccc(C(=O)NCCCN(CCCNC(=O)c2ccc(C=NOCC(=O)NCCOCCOCCOCCOCCC(=O)N[C@@H](CCC(N)=O)C(=O)N[C@@H](Cc3c[nH]c4ccccc34)C(=O)N[C@@H](C)C(=O)N[C@H](C(=O)NCC(=O)N[C@@H](Cc3c[nH]cn3)C(=O)N[C@@H](CC(C)C)C(=O)N[C@@H](CCSC)C(N)=O)C(C)C)cc2)CC(=O)N[C@H](CSC2CC(=O)N(CCN3C(=O)CC(SC[C@H](NC(=O)[C@H](CCCCNC(=O)c4ccc5c(c4)C(C)(C)C(C=CC4=C(c6ccccc6)C(=CC=C6N(CCCCS(=O)(=O)O)c7ccc(S(=O)(=O)O)cc7C6(C)C)CCC4)=[N+]5CCCCS(=O)(=O)[O-])NC(=O)CC[C@H](C(=O)O)N4CCN(CC(=O)O)CCN(CC(=O)O)CC4)C(N)=O)C3=O)C2=O)C(=O)NCCOCCOCC(N)=O)cc1)C(C)C)C(N)=O", "note": "(stereo partly drawn) [[68Ga]Ga-15, metal not drawn]", "values": [
      {"measurement": "logD", "setting": "[1]", "value": "-2.48 ± 0.14"}
    ]}
  ]
}
